Laboratory results as given in the supplement of paper PMC7877785.
± gives the uncertainty stated by the source.

Experiment: self-splicing fitness, log relative to wild type (ln ratio); higher = more splicing; Tetrahymena group I intron in knt gene, E. coli kanamycin selection, DiMSum; sequences stand for … in CUCUCU…GGAGGGAAAAGUUAUCAGGCAUGCACCUGGUAGCUAGUCUUUAAACCAAUAGAUUGCAUCGGUUUAAAAGGCAAGACCGUCAAAUUGCGGGAAAGGGGUCAACAGCCGUUCAGUACCAAGUCUCAGGGGAAACUUUGAGAUGGCCUUGCAAAGGGUAUGGUAAUAAGCUGACGGACAUGGUCCUAACCACGCAGCCAAGUCCUAAGUCAACAGAUCUUCUGUUGAUAUGGAUGCAGUUCACAGACUAAAUGUCGGUCGGGGAAGAUGUAUUCUUCUCAUAAGAUAUAGUCGGACCUCUCCUUAAUGGGAGCUAGCGGAUGAAGUGAUGCAACACUGGAGCCGCUGGGAACUAAUUUGUAUGCGAAAGUAUAUUGAUUAGUUUUGGAGUACUCGUGGUCG
Method in brief: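 The eight P1ex-region nucleotides of an intron in the knt kanamycin-resistance gene on pET-22b(+) were all randomised and the library put into E. coli BL21(DE3). Six replicate transformations were grown overnight at 37°C or 30°C on LB agar with or without 25 μg/mL kanamycin, together with 100 μg/mL carbenicillin, 50 μM IPTG and 0.2% rhamnose. Colonies were pooled and amplicon-sequenced on an Illumina HiSeq 2500. Fitness from DiMSum is the error-weighted combination of wild-type-normalised replicate fold changes, kanamycin over none.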

Sequence | self-splicing fitness (ln) (30 °C) | self-splicing fitness (ln) (37 °C)
CACGAGCAAUAUUACGAGAU | -4.36 ± 0.32 | -3.09 ± 0.26
GCCAAGCAAUAUUACGGGCA | -2.12 ± 0.14 | -0.482 ± 0.12
UUUCAGCAAUAUUACGCCCU | -0.619 ± 0.22 | -0.611 ± 0.29
UCUUAGCAAUAUUACGAGUA | -0.787 ± 0.26 | -1.19 ± 0.27
UAUUAGCAAUAUUACGAGGU | -2.64 ± 0.24 | -2.27 ± 0.35
GGUUAGCAAUAUUACGACAC | 0.342 ± 0.2 | -0.137 ± 0.24
GGUGAGCAAUAUUACGGUCC | -1.66 ± 0.13 | -0.523 ± 0.15
UAGGAGCAAUAUUACGCACG | -2.12 ± 0.32 | -0.819 ± 0.25
CGUCAGCAAUAUUACGAUUG | -0.506 ± 0.076 | -0.162 ± 0.084
UCUAAGCAAUAUUACGGAUC | -3.37 ± 0.37 | -3.24 ± 0.37
UGCAAGCAAUAUUACGGCCG | -0.266 ± 0.075 | 0.134 ± 0.099
ACCAAGCAAUAUUACGCACG | -1.92 ± 0.1 | -0.625 ± 0.13
AAAGAGCAAUAUUACGCCGA | -1.81 ± 0.29 | -2.33 ± 0.34
AUUGAGCAAUAUUACGCUCG | -2.02 ± 0.33 | -0.869 ± 0.22
UUUUAGCAAUAUUACGAACA | – | -0.949 ± 0.48
CAAGAGCAAUAUUACGCUUA | -2.23 ± 0.17 | -0.92 ± 0.15
CGCAAGCAAUAUUACGUCAG | -0.378 ± 0.053 | 0.1 ± 0.069
CGCGAGCAAUAUUACGGCGG | -1.64 ± 0.12 | -0.636 ± 0.17
ACCAAGCAAUAUUACGAGAG | -3.53 ± 0.2 | -2.3 ± 0.17
AUCCAGCAAUAUUACGCGGU | – | -3.32 ± 0.42
CGUCAGCAAUAUUACGUAUA | – | -0.724 ± 0.16
CUGCAGCAAUAUUACGUUUC | -3.11 ± 0.14 | -3.1 ± 0.25
UAUAAGCAAUAUUACGAGCU | -3.44 ± 0.34 | -1.47 ± 0.21
CCAAAGCAAUAUUACGUUAC | -3.75 ± 0.22 | -3.75 ± 0.36
UCAAAGCAAUAUUACGACAG | -2.66 ± 0.14 | -1.25 ± 0.14
UGCCAGCAAUAUUACGAAGG | -3.59 ± 0.27 | -2.6 ± 0.3
AGGGAGCAAUAUUACGUUGC | – | -1.37 ± 0.31

Sequence | self-splicing fitness (ln) (30 °C) | self-splicing fitness (ln) (37 °C)
UCCUAGCAAUAUUACGGCAC | – | -2.14 ± 0.24
CUAUAGCAAUAUUACGGGUG | -0.36 ± 0.061 | 0.369 ± 0.085
GGGGAGCAAUAUUACGACUG | -0.399 ± 0.45 | –
ACUGAGCAAUAUUACGAAGC | – | -2.04 ± 0.46
AUGUAGCAAUAUUACGGAGU | -3.01 ± 0.23 | -1.2 ± 0.18
AGGAAGCAAUAUUACGAACA | -1.85 ± 0.14 | -0.21 ± 0.2
ACUCAGCAAUAUUACGUAGC | -1.24 ± 0.069 | -0.786 ± 0.11
GUCCAGCAAUAUUACGAUGC | -0.013 ± 0.081 | 0.389 ± 0.1
GACGAGCAAUAUUACGCUCU | -3.92 ± 0.27 | -1.64 ± 0.32
UCCUAGCAAUAUUACGAUUA | – | -3.41 ± 0.46
GAUGAGCAAUAUUACGGGGA | – | -2.04 ± 0.25
UUUGAGCAAUAUUACGGGAC | -3.43 ± 0.34 | -2.12 ± 0.27
GCGAAGCAAUAUUACGCGAA | -2.2 ± 0.13 | -1.68 ± 0.14
GACCAGCAAUAUUACGAAGU | -1.45 ± 0.09 | -0.269 ± 0.1
CUGUAGCAAUAUUACGCAAC | – | -2.99 ± 0.47
ACCAAGCAAUAUUACGAUCA | -1.55 ± 0.086 | -1.22 ± 0.075
GGACAGCAAUAUUACGUUGU | -3.63 ± 0.14 | -3.51 ± 0.18
CGAUAGCAAUAUUACGUGCC | -1.8 ± 0.15 | 0.00354 ± 0.14
UGUAAGCAAUAUUACGGCUG | 0.2 ± 0.1 | -0.152 ± 0.11
UGCUAGCAAUAUUACGCCGA | -2.48 ± 0.25 | -1 ± 0.19
GCCCAGCAAUAUUACGUUUG | -3.95 ± 0.14 | -1.84 ± 0.14
CAGAAGCAAUAUUACGACUA | 0.00435 ± 0.063 | 0.187 ± 0.081
GUCCAGCAAUAUUACGGACG | -2.99 ± 0.26 | -0.833 ± 0.18
UGUAAGCAAUAUUACGGUAG | -2.05 ± 0.12 | -1.34 ± 0.13
UGCUAGCAAUAUUACGGAGC | – | -1.42 ± 0.41
UUCAAGCAAUAUUACGGAAC | -3 ± 0.27 | –
AUUUAGCAAUAUUACGUUAU | -2.2 ± 0.2 | -1.95 ± 0.24

Sequence | self-splicing fitness (ln) (30 °C) | self-splicing fitness (ln) (37 °C)
AACCAGCAAUAUUACGUCUU | 0.0745 ± 0.044 | 0.393 ± 0.063
CCCCAGCAAUAUUACGUACG | -3.95 ± 0.26 | -1.89 ± 0.17
GCGCAGCAAUAUUACGAUCG | -1.61 ± 0.11 | 0.00803 ± 0.12
UGUAAGCAAUAUUACGUCGA | -1.42 ± 0.1 | -0.213 ± 0.12
GAGAAGCAAUAUUACGAACG | -0.734 ± 0.12 | -0.343 ± 0.17
AUUUAGCAAUAUUACGGGGU | -3.47 ± 0.26 | -2.32 ± 0.19
AUUGAGCAAUAUUACGCAGU | -2.95 ± 0.36 | -2.11 ± 0.38
CAUAAGCAAUAUUACGUGGU | -3.76 ± 0.17 | -3.31 ± 0.2
CAGCAGCAAUAUUACGUGAU | -3.66 ± 0.15 | -1.78 ± 0.14
UGGUAGCAAUAUUACGGCUC | -0.912 ± 0.12 | -0.984 ± 0.14
CCUGAGCAAUAUUACGUAGA | -3.23 ± 0.13 | -2.26 ± 0.14
AGAUAGCAAUAUUACGGUGG | -1.66 ± 0.12 | -2.23 ± 0.16
AACAAGCAAUAUUACGUUUC | -4.46 ± 0.22 | -2.95 ± 0.15
UGAGAGCAAUAUUACGUGGU | -2.67 ± 0.14 | -2.61 ± 0.2
ACUUAGCAAUAUUACGCGCC | -1.35 ± 0.18 | -0.348 ± 0.19
UAUGAGCAAUAUUACGGUAA | -3.33 ± 0.35 | -2.78 ± 0.35
GAGCAGCAAUAUUACGUCCU | -0.165 ± 0.12 | -0.134 ± 0.16
GAUCAGCAAUAUUACGUUGA | -2.24 ± 0.17 | -1.54 ± 0.15
UACUAGCAAUAUUACGAUGU | -3.42 ± 0.27 | -1.74 ± 0.22
CUAAAGCAAUAUUACGUAGC | -3.73 ± 0.2 | -2.94 ± 0.37
AGAAAGCAAUAUUACGGUGU | -2.76 ± 0.098 | -1.28 ± 0.096
GUGAAGCAAUAUUACGCGCG | -0.674 ± 0.083 | 0.0224 ± 0.12
GAAUAGCAAUAUUACGCUCG | 0.178 ± 0.15 | -0.999 ± 0.16
CUGCAGCAAUAUUACGUGCA | -2.38 ± 0.13 | -0.522 ± 0.1
UCAUAGCAAUAUUACGCAGA | -2.93 ± 0.34 | -2.7 ± 0.24
